Reference: patent publication US20120121587A1 (Chugai, published 2012)
Numbering of substitutions follows the chain as printed.

T1: Human recombinant AXL-FND1 (GST-FND1), from pET-41b(+) (human, UniProt P30530 225-331)
T1 construct: Expressed in E. coli, purified on Glutathione Sepharose; analyte in all Biacore measurements; GST put first by the usual layout of pET-41; not shown: GST-tag of vector pET-41b(+) (Novagen)
T1 sequence (looked up): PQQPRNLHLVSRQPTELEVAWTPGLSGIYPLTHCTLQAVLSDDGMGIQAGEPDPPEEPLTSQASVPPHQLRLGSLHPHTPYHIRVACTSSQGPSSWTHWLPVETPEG

B1: H49/L10 (antibody, human IgG1, kappa)
heavy: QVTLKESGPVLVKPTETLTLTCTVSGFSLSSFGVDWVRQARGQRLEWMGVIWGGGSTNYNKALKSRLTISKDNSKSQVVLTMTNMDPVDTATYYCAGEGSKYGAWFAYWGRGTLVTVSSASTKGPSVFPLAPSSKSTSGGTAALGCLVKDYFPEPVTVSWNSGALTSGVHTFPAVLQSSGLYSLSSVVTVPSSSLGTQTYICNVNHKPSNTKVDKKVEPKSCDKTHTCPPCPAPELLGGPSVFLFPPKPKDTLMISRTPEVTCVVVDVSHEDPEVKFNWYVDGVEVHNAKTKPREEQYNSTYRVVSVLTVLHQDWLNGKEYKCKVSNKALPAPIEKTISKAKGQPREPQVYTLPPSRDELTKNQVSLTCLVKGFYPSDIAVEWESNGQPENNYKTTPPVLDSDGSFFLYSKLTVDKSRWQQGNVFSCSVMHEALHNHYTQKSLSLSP
light: DVVMTQSPLSLPVTLGQPASISCRSSQNIVHTNGNTYLEWYQQKPGKAPELLIYKVSNRFSGVPDRFSGSGSGTDFTLKISRVEAEDVGVYYCFQGSHIPFTFGQGTKVEIERTVAAPSVFIFPPSDEQLKSGTASVVCLLNNFYPREAKVQWKVDNALQSGNSQESVTEQDSKDSTYSLSSTLTLSKADYEKHKVYACEVTHQGLSSPVTKSFNRGEC
B2: H47/L37 (antibody, human IgG1, kappa)
heavy: not shown
light: B1 light with Q17R, Q27R, E50K, Q105R, V109L, E112K
B3: H49/L1 (antibody, human IgG1, kappa)
heavy: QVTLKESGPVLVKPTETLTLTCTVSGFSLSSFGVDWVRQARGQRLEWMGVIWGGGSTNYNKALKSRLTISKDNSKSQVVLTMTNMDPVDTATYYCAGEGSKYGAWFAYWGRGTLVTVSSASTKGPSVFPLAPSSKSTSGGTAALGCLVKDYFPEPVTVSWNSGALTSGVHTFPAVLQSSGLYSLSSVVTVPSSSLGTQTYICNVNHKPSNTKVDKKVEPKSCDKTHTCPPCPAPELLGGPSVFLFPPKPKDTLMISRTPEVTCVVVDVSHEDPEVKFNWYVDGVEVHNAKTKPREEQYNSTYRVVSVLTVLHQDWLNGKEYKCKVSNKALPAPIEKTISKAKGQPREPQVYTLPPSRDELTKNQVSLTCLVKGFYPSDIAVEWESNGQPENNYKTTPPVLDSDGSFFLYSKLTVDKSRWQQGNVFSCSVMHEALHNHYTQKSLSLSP
light: B1 light with R24Q, V109L, E112K
B4: H47/L1 (antibody, human IgG1, kappa)
heavy: not shown
light: B1 light with R24Q, V109L, E112K
B5: H47/L0 (antibody, human IgG1, kappa)
heavy: not shown
light: B1 light with V109L, E112K
B6: H49/L35 (antibody, human IgG1, kappa)
heavy: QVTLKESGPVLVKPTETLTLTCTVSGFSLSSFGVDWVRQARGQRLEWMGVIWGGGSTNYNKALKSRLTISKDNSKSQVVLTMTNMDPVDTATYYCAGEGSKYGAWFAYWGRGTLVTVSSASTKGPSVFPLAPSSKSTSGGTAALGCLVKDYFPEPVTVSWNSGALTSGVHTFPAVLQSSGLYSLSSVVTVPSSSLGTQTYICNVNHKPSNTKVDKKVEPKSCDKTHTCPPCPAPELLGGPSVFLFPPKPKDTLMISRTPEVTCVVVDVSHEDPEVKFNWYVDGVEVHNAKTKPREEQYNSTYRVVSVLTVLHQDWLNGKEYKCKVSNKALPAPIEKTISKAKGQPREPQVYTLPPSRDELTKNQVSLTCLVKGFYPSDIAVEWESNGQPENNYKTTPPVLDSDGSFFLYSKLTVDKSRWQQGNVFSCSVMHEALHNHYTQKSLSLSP
light: B1 light with Q27R, E50K, Q105R, V109L, E112K
B7: H49/L11 (antibody, human IgG1, kappa)
heavy: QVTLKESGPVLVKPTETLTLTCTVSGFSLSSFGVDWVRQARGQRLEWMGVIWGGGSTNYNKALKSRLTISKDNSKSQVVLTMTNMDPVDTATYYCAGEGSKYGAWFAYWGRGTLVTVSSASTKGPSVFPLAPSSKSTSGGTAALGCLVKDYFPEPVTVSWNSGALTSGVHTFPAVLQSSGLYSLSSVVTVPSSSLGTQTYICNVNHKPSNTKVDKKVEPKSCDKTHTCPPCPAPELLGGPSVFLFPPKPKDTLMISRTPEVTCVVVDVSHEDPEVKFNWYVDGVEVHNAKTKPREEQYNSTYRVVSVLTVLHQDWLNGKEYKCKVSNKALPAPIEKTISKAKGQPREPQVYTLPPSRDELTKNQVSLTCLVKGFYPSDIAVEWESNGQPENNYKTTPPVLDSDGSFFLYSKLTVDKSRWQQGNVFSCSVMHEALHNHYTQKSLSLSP
light: B1 light with R24Q
B8: H50/L31 (antibody, human IgG1, kappa)
heavy: not shown
light: B1 light with Q27R, E50K, V109L, E112K
B9: H47/L35 (antibody, human IgG1, kappa)
heavy: not shown
light: B1 light with Q27R, E50K, Q105R, V109L, E112K
B10: H48/L34 (antibody, human IgG1, kappa)
heavy: not shown
light: B1 light with Q17R, Q27R, E50K, V109L, E112K
B11: H48/L10 (antibody, human IgG1, kappa)
heavy: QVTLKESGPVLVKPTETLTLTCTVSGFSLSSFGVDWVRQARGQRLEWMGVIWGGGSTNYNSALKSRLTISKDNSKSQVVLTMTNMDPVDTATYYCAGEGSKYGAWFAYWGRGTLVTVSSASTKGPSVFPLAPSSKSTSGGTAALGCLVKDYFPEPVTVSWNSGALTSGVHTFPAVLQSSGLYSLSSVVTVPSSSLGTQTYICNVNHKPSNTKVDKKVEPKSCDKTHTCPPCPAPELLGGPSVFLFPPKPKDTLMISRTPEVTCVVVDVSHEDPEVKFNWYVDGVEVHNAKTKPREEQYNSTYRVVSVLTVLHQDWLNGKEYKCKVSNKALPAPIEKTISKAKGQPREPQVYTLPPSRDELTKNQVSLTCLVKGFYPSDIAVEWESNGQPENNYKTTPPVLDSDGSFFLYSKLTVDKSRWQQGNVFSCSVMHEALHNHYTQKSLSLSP
light: B1 light
B12: H50/L37 (antibody, human IgG1, kappa)
heavy: not shown
light: B1 light with Q17R, Q27R, E50K, Q105R, V109L, E112K
B13: H47/L28 (antibody, human IgG1, kappa)
heavy: not shown
light: B1 light with E50K, V109L, E112K
B14: H50/L27 (antibody, human IgG1, kappa)
heavy: not shown
light: B1 light with Q27R, V109L, E112K
B15: H47/L34 (antibody, human IgG1, kappa)
heavy: not shown
light: B1 light with Q17R, Q27R, E50K, V109L, E112K
B16: H49/L27 (antibody, human IgG1, kappa)
heavy: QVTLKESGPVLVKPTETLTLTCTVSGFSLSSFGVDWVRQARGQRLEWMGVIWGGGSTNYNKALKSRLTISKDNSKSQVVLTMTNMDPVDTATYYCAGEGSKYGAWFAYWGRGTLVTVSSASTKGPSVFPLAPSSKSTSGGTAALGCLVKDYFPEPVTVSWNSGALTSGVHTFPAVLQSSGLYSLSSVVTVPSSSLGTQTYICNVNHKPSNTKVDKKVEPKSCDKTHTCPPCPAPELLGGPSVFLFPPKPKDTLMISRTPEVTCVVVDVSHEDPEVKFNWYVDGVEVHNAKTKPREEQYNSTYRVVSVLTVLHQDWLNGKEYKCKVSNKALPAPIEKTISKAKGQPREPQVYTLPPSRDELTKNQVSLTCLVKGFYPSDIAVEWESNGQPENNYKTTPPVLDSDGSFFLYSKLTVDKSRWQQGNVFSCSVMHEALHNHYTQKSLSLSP
light: B1 light with Q27R, V109L, E112K
B17: H49/L28 (antibody, human IgG1, kappa)
heavy: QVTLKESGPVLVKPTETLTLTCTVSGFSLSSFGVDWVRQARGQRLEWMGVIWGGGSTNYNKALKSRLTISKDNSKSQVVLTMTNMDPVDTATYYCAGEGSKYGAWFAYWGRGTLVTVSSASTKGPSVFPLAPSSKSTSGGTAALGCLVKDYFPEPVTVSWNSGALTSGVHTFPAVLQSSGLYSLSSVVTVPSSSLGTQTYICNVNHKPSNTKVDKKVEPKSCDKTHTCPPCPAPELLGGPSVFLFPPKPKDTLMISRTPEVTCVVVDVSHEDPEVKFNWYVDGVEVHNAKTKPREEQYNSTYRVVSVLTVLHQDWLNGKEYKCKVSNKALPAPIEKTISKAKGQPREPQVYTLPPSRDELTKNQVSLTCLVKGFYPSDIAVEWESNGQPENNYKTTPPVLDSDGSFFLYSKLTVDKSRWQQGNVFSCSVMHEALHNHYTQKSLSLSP
light: B1 light with E50K, V109L, E112K
B18: H48/L27 (antibody, human IgG1, kappa)
heavy: not shown
light: B1 light with Q27R, V109L, E112K
B19: H46/L34 (antibody, human IgG1, kappa)
heavy: not shown
light: B1 light with Q17R, Q27R, E50K, V109L, E112K
B20: H48/L11 (antibody, human IgG1, kappa)
heavy: not shown
light: B1 light with R24Q
B21: H46/L37 (antibody, human IgG1, kappa)
heavy: not shown
light: B1 light with Q17R, Q27R, E50K, Q105R, V109L, E112K
B22: H47/L27 (antibody, human IgG1, kappa)
heavy: not shown
light: B1 light with Q27R, V109L, E112K
B23: H48/L35 (antibody, human IgG1, kappa)
heavy: not shown
light: B1 light with Q27R, E50K, Q105R, V109L, E112K
B24: H48/L28 (antibody, human IgG1, kappa)
heavy: not shown
light: B1 light with E50K, V109L, E112K
B25: H50/L34 (antibody, human IgG1, kappa)
heavy: not shown
light: B1 light with Q17R, Q27R, E50K, V109L, E112K
B26: H48/L1 (antibody, human IgG1, kappa)
heavy: not shown
light: B1 light with R24Q, V109L, E112K
B27: H49/L0 (antibody, human IgG1, kappa)
heavy: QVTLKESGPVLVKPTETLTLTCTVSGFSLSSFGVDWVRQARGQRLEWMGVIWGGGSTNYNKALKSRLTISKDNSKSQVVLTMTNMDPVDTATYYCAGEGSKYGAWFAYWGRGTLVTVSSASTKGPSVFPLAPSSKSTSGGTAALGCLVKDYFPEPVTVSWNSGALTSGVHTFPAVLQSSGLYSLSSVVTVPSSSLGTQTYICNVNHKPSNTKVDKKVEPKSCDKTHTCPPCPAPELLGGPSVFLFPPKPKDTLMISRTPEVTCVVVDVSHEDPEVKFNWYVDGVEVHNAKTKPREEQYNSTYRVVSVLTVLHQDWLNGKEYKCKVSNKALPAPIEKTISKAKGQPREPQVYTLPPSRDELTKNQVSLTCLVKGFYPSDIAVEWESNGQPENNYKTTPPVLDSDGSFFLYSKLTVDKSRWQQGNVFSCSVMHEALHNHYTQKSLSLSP
light: B1 light with V109L, E112K
B28: H49/L31 (antibody, human IgG1, kappa)
heavy: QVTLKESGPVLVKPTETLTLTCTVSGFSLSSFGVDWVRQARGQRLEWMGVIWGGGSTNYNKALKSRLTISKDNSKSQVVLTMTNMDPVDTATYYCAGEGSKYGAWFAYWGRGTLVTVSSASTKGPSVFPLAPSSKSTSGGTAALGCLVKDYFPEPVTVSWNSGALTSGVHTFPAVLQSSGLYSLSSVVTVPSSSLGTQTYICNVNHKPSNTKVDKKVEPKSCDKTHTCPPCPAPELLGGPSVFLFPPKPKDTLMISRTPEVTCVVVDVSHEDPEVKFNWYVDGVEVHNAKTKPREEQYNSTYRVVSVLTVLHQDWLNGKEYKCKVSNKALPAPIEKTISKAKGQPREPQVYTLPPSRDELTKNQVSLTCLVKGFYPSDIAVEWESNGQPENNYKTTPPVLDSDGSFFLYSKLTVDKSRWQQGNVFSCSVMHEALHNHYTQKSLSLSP
light: B1 light with Q27R, E50K, V109L, E112K
B29: H50/L0 (antibody, human IgG1, kappa)
heavy: not shown
light: B1 light with V109L, E112K
B30: H47/L31 (antibody, human IgG1, kappa)
heavy: not shown
light: B1 light with Q27R, E50K, V109L, E112K
B31: H50/L10 (antibody, human IgG1, kappa)
heavy: not shown
light: B1 light
B32: H50/L11 (antibody, human IgG1, kappa)
heavy: not shown
light: B1 light with R24Q
B33: H47/L10 (antibody, human IgG1, kappa)
heavy: not shown
light: B1 light
B34: H46/L35 (antibody, human IgG1, kappa)
heavy: not shown
light: B1 light with Q27R, E50K, Q105R, V109L, E112K
B35: H48/L0 (antibody, human IgG1, kappa)
heavy: not shown
light: B1 light with V109L, E112K
B36: H48/L37 (antibody, human IgG1, kappa)
heavy: not shown
light: B1 light with Q17R, Q27R, E50K, Q105R, V109L, E112K
B37: H50/L1 (antibody, human IgG1, kappa)
heavy: not shown
light: B1 light with R24Q, V109L, E112K
B38: H47/L11 (antibody, human IgG1, kappa)
heavy: not shown
light: B1 light with R24Q
B39: H48/L31 (antibody, human IgG1, kappa)
heavy: not shown
light: B1 light with Q27R, E50K, V109L, E112K
B40: H49/L34 (antibody, human IgG1, kappa)
heavy: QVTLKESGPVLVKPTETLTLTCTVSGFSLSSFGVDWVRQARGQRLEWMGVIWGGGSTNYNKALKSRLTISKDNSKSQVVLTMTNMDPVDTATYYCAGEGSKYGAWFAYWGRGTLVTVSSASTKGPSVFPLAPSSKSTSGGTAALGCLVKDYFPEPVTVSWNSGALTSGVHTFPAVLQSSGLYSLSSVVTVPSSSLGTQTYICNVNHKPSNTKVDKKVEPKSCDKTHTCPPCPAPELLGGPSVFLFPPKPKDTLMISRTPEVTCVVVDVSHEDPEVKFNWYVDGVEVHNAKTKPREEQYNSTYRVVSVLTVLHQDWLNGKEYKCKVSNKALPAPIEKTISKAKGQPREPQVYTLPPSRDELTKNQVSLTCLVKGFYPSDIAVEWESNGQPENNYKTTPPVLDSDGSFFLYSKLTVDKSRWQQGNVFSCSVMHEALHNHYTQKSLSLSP
light: B1 light with Q17R, Q27R, E50K, V109L, E112K
B41: H50/L28 (antibody, human IgG1, kappa)
heavy: not shown
light: B1 light with E50K, V109L, E112K
B42: H49/L37 (antibody, human IgG1, kappa)
heavy: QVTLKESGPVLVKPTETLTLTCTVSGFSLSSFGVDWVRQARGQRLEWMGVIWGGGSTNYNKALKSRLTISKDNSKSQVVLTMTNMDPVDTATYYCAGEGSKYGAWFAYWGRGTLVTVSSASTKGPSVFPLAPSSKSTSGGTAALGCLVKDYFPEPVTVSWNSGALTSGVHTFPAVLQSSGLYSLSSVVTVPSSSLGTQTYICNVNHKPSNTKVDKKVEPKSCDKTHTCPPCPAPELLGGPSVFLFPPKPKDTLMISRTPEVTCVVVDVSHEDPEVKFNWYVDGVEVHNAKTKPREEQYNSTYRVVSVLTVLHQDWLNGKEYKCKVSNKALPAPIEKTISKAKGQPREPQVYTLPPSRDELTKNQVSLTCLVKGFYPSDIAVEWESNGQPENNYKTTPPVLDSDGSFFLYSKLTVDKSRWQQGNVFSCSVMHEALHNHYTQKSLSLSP
light: B1 light with Q17R, Q27R, E50K, Q105R, V109L, E112K
B43: H50/L35 (antibody, human IgG1, kappa)
heavy: not shown
light: B1 light with Q27R, E50K, Q105R, V109L, E112K
B44: H9/L36 (antibody, human IgG1, kappa, V domains shown)
VH: QVTLKESGPVLVKPTETLTLTCTVSGFSLSSFGVDWVRQAPGKGLEWMGVIWGGGSTNYNSALKSRLTISKDNSKSQVVLTMTNMDPVDTATYYCAGEGSKYGAWFAYWGQGTLVTVSS
VL: DVVMTQSPLSLPVTLGQPASISCRSSQNIVHTNANTYLEWYQQKPGKAPELLIYKVSNRFSGVPDRFSGSGSGTDFTLKISRVEAEDVGVYYCFQGSHIPFTFGQGTKLEIKR
B45: H32/L21 (antibody, human IgG1, kappa, V domains shown)
VH: B44 VH with S61E, K64Q, S65D, Q111E
VL: B44 VL with R24Q, L109V, K112E
B46: H36/L36 (antibody, human IgG1, kappa, V domains shown)
VH: B44 VH with P41R, K43Q, G44R
VL: B44 VL

target: T1, Human recombinant AXL-FND1 (GST-FND1), …; assay: SPR (Biacore T100): antibody captured on Protein A, GST-FND1 as analyte
Outline: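 Antibodies (1 μg/mL) were captured for 2 min on a Protein A CM5 chip. GST-FND1 (0.5 and 2.0 μg/mL) in HBS-EP+ was flowed at 30 μL/min with 2 min association and 2 min dissociation at 25° C. ka and kd were fitted from sensorgrams and Kd was calculated from them.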

Row | Kd | Binder
1 | 2.05 nM | B1
2 | 2.38 nM | B2
3 | 1.91 nM | B3
4 | 1.89 nM | B4
5 | 1.84 nM | B5
6 | 2.08 nM | B6
7 | 1.92 nM | B7
8 | 1.93 nM | B8
9 | 1.68 nM | B9
10 | 2.27 nM | B10
11 | 2.06 nM | B11
12 | 2.72 nM | B12
13 | 1.52 nM | B13
14 | 1.95 nM | B14
15 | 2.2 nM | B15
16 | 2.08 nM | B16
17 | 2.11 nM | B17
18 | 1.99 nM | B18
19 | 2.22 nM | B19
20 | 2 nM | B20
21 | 2.3 nM | B21
22 | 1.6 nM | B22

Row | Kd | Binder
23 | 2.07 nM | B23
24 | 2.07 nM | B24
25 | 2.36 nM | B25
26 | 2.09 nM | B26
27 | 2.06 nM | B27
28 | 1.94 nM | B28
29 | 1.89 nM | B29
30 | 1.83 nM | B30
31 | 1.9 nM | B31
32 | 1.82 nM | B32
33 | 1.89 nM | B33
34 | 2.04 nM | B34
35 | 2.09 nM | B35
36 | 2.19 nM | B36
37 | 1.86 nM | B37
38 | 1.83 nM | B38
39 | 1.98 nM | B39
40 | 2.21 nM | B40
41 | 1.97 nM | B41
42 | 2.43 nM | B42
43 | 2.24 nM | B43

target: T1, Human recombinant AXL-FND1 (GST-FND1), …; assay: as above; remark: another data set of the same source
Description: Kinetic analyses of antigen-antibody reactions of humanized AXL antibodies were carried out using Biacore T100 (BIACORE). rec-Protein A (Zymed) (hereinafter, Protein A) was immobilized onto a sensor chip, various antibodies were bound to it, then an antigen as the analyte was flushed to measure the antibody-antigen interaction. Human recombinant AXL-FND1 (prepared in 2-2; hereinafter referred to as GST-FND1) prepared at various concentrations was used as the antigen. From the sensorgrams obtained through the measurements, kinetic parameters, namely binding rate constant kₐ (1/Ms) and dissociation rate constant kd (1/s), were calculated, and Kd (M) was calculated based on these values. Biacore T100 Evaluation Software (BIACORE) was used to calculate each of the parameters.
The sensor chips were produced by immobilizing approximately 3000 RU of Protein A onto CM5 (BIACORE) by amine coupling. Using the produced sensor chip, kinetic analyses were carried out on the interaction between the Protein A-bound antibodies and GST-FND1. HBS-EP+ was used as the running buffer, and the flow rate was set to 30 μL/min. Each antibody was prepared at 1 μg/mL using the running buffer, and was subjected to binding with Protein A for two minutes. GST-FND1 as the analyte was prepared at 0.5 and 2.0 μg/mL using HBS-EP+. Measurements were carried out by first binding the various humanized AXL antibodies, chimeric AXL antibodies, or mouse AXL antibodies of interest to Protein A, then applying an analyte solution to them for a two-minute interaction, and then switching to HBS-EP+ (BIACORE) for a two-minute measurement of the dissociation phase. After completion of measurement of the dissociation phase, 30 μL of 10 mM glycine-HCl (pH 2.0) was used for washing to regenerate the sensor chip. Such binding, dissociation, and regeneration were defined as one cycle of analysis. All experiments were performed at 25° C.
Affinity measurements on the produced variants were carried out by the method of Example 2.

Row | Kd | Binder
44 | 3.6 nM | B44
45 | 3.81 nM | B45
46 | 2.59 nM | B46
